Earlier results, collected in patent US20200069786A1, “COMPOSITION AND PROCESS FOR PREPARING VACCINE” (TREOS BIO ZRT., priority 2018, published 2020).
Read-outs that look alike come from different tables or passages of the source.

System: TSA
[1] = TSA expression rate in Esophageal
[2] = TSA expression rate in GASTRIC cancer
[3] = TSA expression rate in MELANOMA
[4] = TSA expression rate in LUNG cancer
[5] = TSA expression rate in HEAD and NECK

Row | Molecule | TSA Expression Rate (ER) (BRAIN) [%] | TSA Expression Rate (ER) (BREAST) [%] | TSA Expression Rate (ER) (HCC) [%] | TSA Expression Rate (ER) (LUNG) [%] | TSA Expression Rate (ER) (OVARIAN) [%] | Expression Rate (ER) % (TSA expression rate in CRC) [%] | Expression Rate (ER) % [1] [%] | Expression Rate (ER) % [2] [%] | TSA Expression Rate (ER) (THYROID) [%] | Expression Rate (ER) % [3] [%] | Expression Rate (ER) % (TSA expression rate in LEUKEMIAS) [%] | Expression Rate (ER) % [4] [%] | Expression Rate (ER) % (TSA expression rate in BLADDER cancer) [%] | Expression Rate (ER) % [5] [%] | Expression Rate (ER) % (TSA expression rate in Kidney) [%] | Expression Rate (ER) % (TSA expression rate in PROSTATE cancer) [%]
1 | TRAG-3 (protein, UniProt Q9Y5P2 1-127, looked up) Chondrosarcoma-associated …: MWMGLIQLVEGVKRKDQGFLEKEFYHKTNIKMRCEFLACWPAFTVLGEAWRDQVDWSRLLRDAGLVKMSRKPRASSPLSNNHPPTPKRRGSGRHPLNPGPEALSKFPRQPGREKGPIKEVPGTKGSP | 0 | 10 | 26 | 54 | 83 | 7 | 55 | 10 |  |  |  |  |  |  |  | 
2 | MART1 (protein, UniProt Q16655 1-118, looked up) Melanoma antigen recognized …: MPREDAHFIYGYPKKGHGHSYTTAEEAAGIGILTVILGVLLLIGCWYCRRRNGYRALMDKSLHVGTQCALTRRCPQEGFDHRDSKVSLQEKNCEPVVPNAPPAYEKLSAEQSPPPYSP | 0 |  |  |  |  |  |  |  | 0 | 89 |  |  |  |  |  | 
3 | MAGE-B4 (protein, UniProt O15481 1-346, looked up) Melanoma-associated antigen B4: MPRGQKSKLRAREKRQRTRGQTQDLKVGQPTAAEKEESPSSSSSVLRDTASSSLAFGIPQEPQREPPTTSAAAAMSCTGSDKGDESQDEENASSSQASTSTERSLKDSLTRKTKMLVQFLLYKYKMKEPTTKAEMLKIISKKYKEHFPEIFRKVSQRTELVFGLALKEVNPTTHSYILVSMLGPNDGNQSSAWTLPRNGLLMPLLSVIFLNGNCAREEEIWEFLNMLGIYDGKRHLIFGEPRKLITQDLVQEKYLEYQQVPNSDPPRYQFLWGPRAHAETSKMKVLEFLAKVNDTTPNNFPLLYEEALRDEEERAGARPRVAARRGTTAMTSAYSRATSSSSSQPM | 0 |  |  |  |  |  |  |  |  |  | 3 | 0 |  |  |  | 
4 | SAGE1 (protein, UniProt Q9NXZ1 1-904, looked up) Sarcoma antigen 1: MQASPLQTSQPTPPEELHAAAYVFTNDGQQMRSDEVNLVATGHQSKKKHSRKSKRHSSSKRRKSMSSWLDKQEDAAVTHSICEERINNGQPVADNVLSTAPPWPDATIAHNIREERMENGQSRTDKVLSTAPPQLVHMAAAGIPSMSTRDLHSTVTHNIREERMENGQPQPDNVLSTGPTGLINMAATPIPAMSARDLYATVTHNVCEQKMENVQPAPDNVLLTLRPRRINMTDTGISPMSTRDPYATITYNVPEEKMEKGQPQPDNILSTASTGLINVAGAGTPAISTNGLYSTVPHNVCEEKMENDQPQPNNVLSTVQPVIIYLTATGIPGMNTRDQYATITHNVCEERVVNNQPLPSNALSTVLPGLAYLATADMPAMSTRDQHATIIHNLREEKKDNSQPTPDNVLSAVTPELINLAGAGIPPMSTRDQYATVNHHVHEARMENGQRKQDNVLSNVLSGLINMAGASIPAMSSRDLYATITHSVREEKMESGKPQTDKVISNDAPQLGHMAAGGIPSMSTKDLYATVTQNVHEERMENNQPQPSYDLSTVLPGLTYLTVAGIPAMSTRDQYATVTHNVHEEKIKNGQAASDNVFSTVPPAFINMAATGVSSMSTRDQYAAVTHNIREEKINNSQPAPGNILSTAPPWLRHMAAAGISSTITRDLYVTATHSVHEEKMTNGQQAPDNSLSTVPPGCINLSGAGISCRSTRDLYATVIHDIQEEEMENDQTPPDGFLSNSDSPELINMTGHCMPPNALDSFSHDFTSLSKDELLYKPDSNEFAVGTKNYSVSAGDPPVTVMSLVETVPNTPQISPAMAKKINDDIKYQLMKEVRRFGQNYERIFILLEEVQGSMKVKRQFVEFTIKEAARFKKVVLIQQLEKALKEIDSHCHLRKVKHMRKR | 0 | 2 |  |  |  |  | 22 | 8 | 0 | 5 |  | 15 | 12 | 17 | 5 | 
5 | TPTE (protein, UniProt P56180 1-551, looked up) Putative tyrosine-protein …: MNESPDPTDLAGVIIELGPNDSPQTSEFKGATEEAPAKESPHTSEFKGAARVSPISESVLARLSKFEVEDAENVASYDSKIKKIVHSIVSSFAFGLFGVFLVLLDVTLILADLIFTDSKLYIPLEYRSISLAIALFFLMDVLLRVFVERRQQYFSDLFNILDTAIIVILLLVDVVYIFFDIKLLRNIPRWTHLLRLLRLIILLRIFHLFHQKRQLEKLIRRRVSENKRRYTRDGFDLDLTYVTERIIAMSFPSSGRQSFYRNPIKEVVRFLDKKHRNHYRVYNLCSERAYDPKHFHNRVVRIMIDDHNVPTLHQMVVFTKEVNEWMAQDLENIVAIHCKGGTDRTGTMVCAFLIASEICSTAKESLYYFGERRTDKTHSEKFQGVKTPSQKRYVAYFAQVKHLYNWNLPPRRILFIKHFIIYSIPRYVRDLKIQIEMEKKVVFSTISLGKCSVLDNITTDKILIDVFDGLPLYDDVKVQFFYSNLPTYYDNCSFYFWLHTSFIENNRLYLPKNELDNLHKQKARRIYPSDFAVEILFGEKMTSSDVVAGSD | 0 |  | 39 | 36 |  | 4 |  | 0 |  |  |  |  |  | 0 |  | 
6 | ATAD2 (protein, UniProt Q6PL18 1-1390, looked up) ATPase family AAA …: MVVLRSSLELHNHSAASATGSLDLSSDFLSLEHIGRRRLRSAGAAQKKPAATTAKAGDGSSVKEVETYHRTRALRSLRKDAQNSSDSSFEKNVEITEQLANGRHFTRQLARQQADKKKEEHREDKVIPVTRSLRARNIVQSTEHLHEDNGDVEVRRSCRIRSRYSGVNQSMLFDKLITNTAEAVLQKMDDMKKMRRQRMRELEDLGVFNETEESNLNMYTRGKQKDIQRTDEETTDNQEGSVESSEEGEDQEHEDDGEDEDDEDDDDDDDDDDDDDDEDDEDEEDGEEENQKRYYLRQRKATVYYQAPLEKPRHQRKPNIFYSGPASPARPRYRLSSAGPRSPYCKRMNRRRHAIHSSDSTSSSSSEDEQHFERRRKRSRNRAINRCLPLNFRKDELKGIYKDRMKIGASLADVDPMQLDSSVRFDSVGGLSNHIAALKEMVVFPLLYPEVFEKFKIQPPRGCLFYGPPGTGKTLVARALANECSQGDKRVAFFMRKGADCLSKWVGESERQLRLLFDQAYQMRPSIIFFDEIDGLAPVRSSRQDQIHSSIVSTLLALMDGLDSRGEIVVIGATNRLDSIDPALRRPGRFDREFLFSLPDKEARKEILKIHTRDWNPKPLDTFLEELAENCVGYCGADIKSICAEAALCALRRRYPQIYTTSEKLQLDLSSINISAKDFEVAMQKMIPASQRAVTSPGQALSTVVKPLLQNTVDKILEALQRVFPHAEFRTNKTLDSDISCPLLESDLAYSDDDVPSVYENGLSQKSSHKAKDNFNFLHLNRNACYQPMSFRPRILIVGEPGFGQGSHLAPAVIHALEKFTVYTLDIPVLFGVSTTSPEETCAQVIREAKRTAPSIVYVPHIHVWWEIVGPTLKATFTTLLQNIPSFAPVLLLATSDKPHSALPEEVQELFIRDYGEIFNVQLPDKEERTKFFEDLILKQAAKPPISKKKAVLQALEVLPVAPPPEPRSLTAEEVKRLEEQEEDTFRELRIFLRNVTHRLAIDKRFRVFTKPVDPDEVPDYVTVIKQPMDLSSVISKIDLHKYLTVKDYLRDIDLICSNALEYNPDRDPGDRLIRHRACALRDTAYAIIKEELDEDFEQLCEEIQESRKKRGCSSSKYAPSYYHVMPKQNSTLVGDKRSDPEQNEKLKTPSTPVACSTPAQLKRKIRKKSNWYLGTIKKRRKISQAKDDSQNAIDHKIESDTEETQDTSVDHNETGNTGESSVEENEKQQNASESKLELRNNSNTCNIENELEDSRKTTACTELRDKIACNGDASSSQIIHISDENEGKEMCVLRMTRARRSQVEQQQLITVEKALAILSQPTPSLVVDHERLKNLLKTVVKKSQNYNIFQLENLYAVISQCIYRHRKDHDKTSLIQKMEQEVENFSCSR |  | 52 |  | 23 |  | 58 |  | 43 |  | 0 |  |  |  |  |  | 0
